The results in this text go back to patent US20190185532A1 (UNIVERSITY OF BIRMINGHAM, published 2019).

Holding throughout (assay): flow cytometry on transfected HEK293T cells, streptavidin-PE
A general note: In flow cytometry, cells or beads pass a laser one at a time.

Test [1] concerns the target T1, CLEC14A (human, wild type, C-terminal GFP tag, expressed in HEK293T) (human, UniProt Q86T13 22-490).
T1 construct: On cells in flow cytometry; as non-reduced HEK293T lysate in far western blots; also called CLEC14A wt; cell surface expressed CLEC14A; not shown: C-terminal green fluorescent protein (GFP) tag from vector pEGFP-N1
T1 sequence: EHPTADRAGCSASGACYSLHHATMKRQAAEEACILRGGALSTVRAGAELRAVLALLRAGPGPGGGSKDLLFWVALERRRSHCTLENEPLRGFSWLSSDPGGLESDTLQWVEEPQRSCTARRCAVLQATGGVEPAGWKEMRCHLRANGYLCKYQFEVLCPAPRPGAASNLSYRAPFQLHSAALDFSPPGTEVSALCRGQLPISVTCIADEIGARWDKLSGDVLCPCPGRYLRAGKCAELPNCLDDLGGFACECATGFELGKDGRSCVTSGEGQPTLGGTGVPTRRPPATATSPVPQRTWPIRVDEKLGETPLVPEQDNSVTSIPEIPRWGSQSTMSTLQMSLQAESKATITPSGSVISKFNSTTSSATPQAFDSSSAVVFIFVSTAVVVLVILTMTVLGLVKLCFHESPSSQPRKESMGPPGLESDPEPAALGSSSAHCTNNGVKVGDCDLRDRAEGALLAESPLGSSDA
The text has this:
(§1) The minimal CLEC14A binding fragment is highlighted in black. (B,C) HEK293T were transfected with truncation mutants. Lysates were far western blotted under reduced conditions with CLEC14A extracellular domain fused to an Fc tag (CLEC14A-ECD-Fc) and western blotted by use of His tag antibodies. (B) The smallest binding fragment was identified as MMRN2⁴⁸⁷⁻⁸²⁰, MMRN2^FL fails to bind CLEC14A-ECD-Fc. (C) The smallest MMRN2 fragment binding CLEC14A is MMRN2⁵³⁰⁻⁶²⁴. (D) MMRN2⁴⁹⁵⁻⁶⁷⁴ and MMRN2⁴⁹⁵⁻⁶⁰³ bind to streptavidin under reducing conditions after biotinylation. (E) Flow cytometry histograms of HEK293T transfected with GFP tagged CTLD group 14 family members and stained with biotinylated MMRN2⁴⁹⁵⁻⁶⁷⁴ (grey line), confirming binding to CLEC14A and CD93 but not thrombomodulin. Streptavidin-PE was used as a control for background binding (grey shaded).
(§2) The human MMRN2⁴⁹⁵⁻⁶⁷⁴ fragment along with the non-CLEC14A binding fragment MMRN2⁴⁹⁵⁻⁶⁰³ was expressed in E. coil with a His tag for purification and a BirA tag for specific biotinylation (17). Biotinylated proteins could bind to streptavidin in western blots (FIG. 2D) and MMRN2⁴⁹⁵⁻⁶⁷⁴ could bind to cell surface expressed CLEC14A and CD93 but not thrombomodulin detected by flow cytometry. This confirmed the CLEC14A and CD93 interactions likely occur in the same region of MMRN2 (FIG. 2E).
(§3) HUVEC or transfected HEK293T cells were detached from tissue culture plates using cell dissociation buffer or scraped and 5×10⁵ cells were stained with 20 ug/mL of antibody of interest or 20 μg/mL of recombinant protein. In blocking experiments, hCLEC14A-ECD-Fc was incubated with 2× molar excess of antibody or recombinant protein on ice for 1 hour. Flow cytometry buffer (PBS with 0.2% (w/v) BSA and 0.02% (w/v) sodium azide) was used for all wash and incubation steps. Samples were analysed on a FACSCalibur machine (BD Biosciences). […] Isotype control staining or human Fc alone was used as background fluorescence and this was subtracted from the geometric mean fluorescence intensity of each sample.

Test [2] has as its target T2, thrombomodulin (human, C-terminal GFP tag, expressed in HEK293T) (human, UniProt P07204 19-575).
T2 construct: whole, on cells; On cells in flow cytometry; as non-reduced HEK293T lysate in far western blots; also called THBD; THBD wt; not shown: C-terminal green fluorescent protein (GFP) tag from vector pEGFP-N1
From the text: as §1, §2, §3

Test [3] deals with T3, CD93 (human, wild type, C-terminal GFP tag, expressed in HEK293T) (human, UniProt Q9NPY3 22-652).
T3 construct: On cells in flow cytometry; as non-reduced HEK293T lysate in far western blots; also called CD93 wild type (wt); cell surface expressed CD93; not shown: C-terminal green fluorescent protein (GFP) tag from vector pEGFP-N1
T3 sequence: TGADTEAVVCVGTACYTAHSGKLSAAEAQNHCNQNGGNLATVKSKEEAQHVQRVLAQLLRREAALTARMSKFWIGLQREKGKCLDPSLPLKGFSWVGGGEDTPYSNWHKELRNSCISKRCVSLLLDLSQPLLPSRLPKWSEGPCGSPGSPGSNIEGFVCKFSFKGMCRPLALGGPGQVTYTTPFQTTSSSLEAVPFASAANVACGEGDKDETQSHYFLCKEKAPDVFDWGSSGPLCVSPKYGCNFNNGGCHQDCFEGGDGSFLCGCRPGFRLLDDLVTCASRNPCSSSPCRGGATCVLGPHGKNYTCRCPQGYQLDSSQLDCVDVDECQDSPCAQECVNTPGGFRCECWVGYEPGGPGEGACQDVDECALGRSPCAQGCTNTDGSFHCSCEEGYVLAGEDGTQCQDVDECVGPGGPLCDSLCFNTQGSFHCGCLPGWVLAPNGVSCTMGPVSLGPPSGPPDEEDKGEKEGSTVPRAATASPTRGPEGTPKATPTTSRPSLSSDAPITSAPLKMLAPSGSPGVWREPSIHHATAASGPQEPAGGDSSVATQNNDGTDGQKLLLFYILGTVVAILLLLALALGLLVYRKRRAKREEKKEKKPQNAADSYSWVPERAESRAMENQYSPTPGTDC
From the text: as §1, §2, §3

T2 sequence (P07204 19-575): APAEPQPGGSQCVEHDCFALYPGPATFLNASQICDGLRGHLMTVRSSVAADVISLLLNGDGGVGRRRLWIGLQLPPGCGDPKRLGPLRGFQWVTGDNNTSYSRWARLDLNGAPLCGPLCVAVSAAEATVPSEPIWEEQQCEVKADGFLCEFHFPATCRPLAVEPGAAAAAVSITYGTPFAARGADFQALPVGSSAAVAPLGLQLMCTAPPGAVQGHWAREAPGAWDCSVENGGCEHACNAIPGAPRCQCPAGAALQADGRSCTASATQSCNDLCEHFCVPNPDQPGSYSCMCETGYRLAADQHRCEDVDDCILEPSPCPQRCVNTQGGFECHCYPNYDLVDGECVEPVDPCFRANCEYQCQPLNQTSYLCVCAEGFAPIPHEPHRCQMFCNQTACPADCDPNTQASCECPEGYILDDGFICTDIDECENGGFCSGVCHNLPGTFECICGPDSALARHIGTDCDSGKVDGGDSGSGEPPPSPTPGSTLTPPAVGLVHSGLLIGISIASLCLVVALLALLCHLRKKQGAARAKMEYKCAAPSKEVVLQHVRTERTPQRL

B1: biotinylated MMRN2^495-674 (human, expressed in E. coli with a His tag and a BirA tag) (ligand)
chain: QKLYLDLDVIREGQRDATRALEETQVSLDERRQLDGSSLQALQNAVDAVSLAVDAHKAEGERARAATSRLRSQVQALDDEVGALKAAAAEARHEVRQLHSAFAALLEDALRHEAVLAALFGEEVLEEMSEQTPGPLPLSYEQIRVALQDAASGLQEQALGWDELAARVTALEQASEPPRP
modifications: biotin on the BirA tag
notes: Used for staining of transfected HEK293T cells in flow cytometry, detected with streptavidin-PE; not shown: BirA tag and His tag (vector pET23a)
For B1, the binding result in test [1] is given as “binds”; in test [2], “no binding (tested: 20 µg/mL)”; in test [3], “binds”.
